# Experimental data reported in the supplement of paper PMC10567573.
# B1: TCEB3B (parent)
# chain: STTALGDKQRKANESKGTRESWDS
# B2: ZNF449 (parent)
# chain: HKKKSPGEKPHRCPQCGKCFARKS
# Variants of: B1
# Experiment: protein stability index of a GFP-peptide fusion (GPS, HEK-293T) (PSI 1-6); higher = more stable
# Conditions: c terminus: a fixed tail appended
# 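Further: lentivirally expressed fusions sorted by FACS into six bins by GFP to DsRed ratio, PSI derived from sequencing read proportions per bin multiplied by bin number.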
row,Variant,protein stability index
1,S24M,4.34
2,S24Q,3.84
3,S24I,4.26
4,S24Y,4.46
5,S24D,4.54
6,S24K,4.17
7,S24A,4.38
8,S24T,4.58
9,S24H,3.97
10,S24P,4.99
11,S24L,4.37
12,S24W,4.59
13,S24N,4.57
14,S24F,4.38
15,S24V,4.62
16,S24G,4.89
17,S24E,3.93
18,S24C,4.07
19,S24R,3.94
20,D23L,1.98
21,D23C,1.98
22,D23K,2.47
23,D23N,4.15
24,D23Q,3.51

row,Variant,protein stability index
1,D23Y,4.07
2,D23M,2.32
3,D23E,1.82
4,D23R,2.13
5,D23V,2.56
6,D23T,1.05
7,D23W,3.59
8,D23H,3.81
9,D23G,2.83
10,D23S,1.78
11,D23P,4.76
12,D23F,3.93
13,D23A,4.65
14,D23I,2.69
15,S21M,5.23
16,S21G,5.25
17,S21I,4.93
18,S21W,4.34
19,S21V,4.84
20,S21Q,5.22
21,S21P,5.24
22,S21T,3.57
23,S21N,5.19
24,S21Y,5.09

row,Variant,protein stability index
1,S21R,4.82
2,S21L,4.99
3,S21H,5.02
4,S21K,4.97
5,W22F,5.38
6,W22M,5.53
7,W22S,4.29
8,W22K,5.7
9,W22G,5.53
10,W22Q,5.47
11,W22H,5.45
12,W22I,5.53
13,W22A,5.29
14,W22R,5.82
15,W22L,5.25
16,W22Y,5.6
17,W22N,5.83
18,W22E,5.67
19,W22D,5.42
20,W22T,5.24
21,W22V,5.12
22,W22C,5.1
23,W22P,5.54

# Variants of: B2
# Experiment: as above
# Conditions: c terminus: a fixed tail appended
row,Variant,protein stability index
1,K9L,2.42
2,K9Y,3.75
3,K9W,3.66
4,K9N,4.35
5,K9H,2.57
6,K9M,4.23
7,K9R,3.94
8,K9F,3.38
9,K2A,3.42
10,K2V,3.25
11,K2S,3.19
12,K2L,3.41
13,K2P,3.46
14,K2M,2.52
15,K2W,3.04
16,K2Y,2.37
17,K2N,3.78
18,K2I,2.98
19,K2T,3.03
20,K2Q,3.36
21,K2C,3.21
22,K2F,3.32
23,K2G,3.43
24,P6G,4.52

row,Variant,protein stability index
1,P6Y,3.94
2,P6E,3.4
3,P6N,3.44
4,P6W,3.05
5,P6V,2.98
6,P6Q,3.57
7,P6R,3.51
8,P6K,3.39
9,P6D,2.73
10,P6T,4.38
11,P6I,3.19
12,R22H,3.83
13,R22N,3.45
14,R22M,3.33
15,R22K,3.83
16,R22L,3.64
17,R22S,2.92
18,R22G,3.46
19,R22T,4.06
20,R22Q,3.78
21,P14S,3.01
22,P14Y,3.75
23,P14R,3
24,P14K,3.78

row,Variant,protein stability index
1,P14T,3.54
2,P14I,3.62
3,P14E,3.79
4,P14N,3.87
5,P14F,2.72
6,P14A,3.01
7,P14W,2.57
8,P14H,3.26
9,C13W,3.15
10,C13R,3.91
11,C13D,4.36
12,C13V,4.69
13,C13Q,3.88
14,C13N,4.95
15,C13F,2.71
16,C13H,4.07
17,C13S,4.4
18,C13T,4.67
19,C13I,4.05
20,C13E,4.34
21,C13M,4.82
22,S5Y,3.55
23,S5N,3.88
24,S5P,2.71

row,Variant,protein stability index
1,S5L,3.23
2,S5V,2.77
3,S5Q,3.84
4,S5A,4.1
5,S5H,3.32
6,S5M,3.18
7,S5I,3.26
8,S5E,3.7
9,S5F,3.4
10,G7A,3.46
11,G7T,3.58
12,G7P,4.25
13,G7I,2.94
14,G7S,3.36
15,G7M,3.46
16,G7F,3.53
17,G7V,3.76
18,G7N,3.52
19,G7Q,3.2
20,G7Y,3.55
21,G17C,3.31
22,G17W,3.41
23,G17N,3.75
24,G17D,3.86

row,Variant,protein stability index
1,G17Y,3.6
2,G17Q,3.66
3,G17H,3.44
4,R12Q,3.19
5,R12T,2.74
6,R12L,3.85
7,R12F,2.56
8,R12Y,3.3
9,R12W,2.68
10,R12N,3.92
11,R12S,4.11
12,R12P,2.74
13,R12K,3.98
14,C19T,3.44
15,C19A,3.36
16,C19I,4.05
17,C19F,3.48
18,C19D,3.66
19,C19H,4.35
20,C19V,3.41
21,C19Y,3.99
22,C19M,2.54
23,C19N,3.79
24,F20Y,3.67

row,Variant,protein stability index
1,F20P,1.49
2,F20R,3.96
3,F20L,4.18
4,F20H,4.62
5,F20S,3.63
6,F20D,4.04
7,F20V,3.97
8,F20A,3.64
9,F20N,5.19
10,F20I,4.38
11,C16H,2.71
12,C16N,3.64
13,C16Q,4.18
14,C16I,4.24
15,C16E,4.71
16,C16R,3.42
17,C16Y,4.59
18,C16P,4.48
19,C16T,3.71
20,S24K,3.99
21,S24I,3.32
22,S24T,3.8
23,S24P,3.76
24,S24F,1.99

row,Variant,protein stability index
1,S24D,3.97
2,S24C,3.82
3,S24V,1.78
4,H11A,3.42
5,H11G,3.57
6,H11D,3.21
7,H11M,3.18
8,H11W,3.54
9,H11T,3.49
10,H11R,3.08
11,H11K,3.28
12,H11Y,3.02
13,H11C,4.53
14,H11E,4.17
15,H11N,3.41
16,K4L,4.2
17,K4F,3.52
18,K4R,4.01
19,K4W,2.98
20,K4A,2.87
21,K4G,3.13
22,K4V,3.66
23,K4Q,2.84
24,K4H,3.41

row,Variant,protein stability index
1,K4C,3.75
2,K4S,3.14
3,K4T,3.89
4,K4M,3.37
5,K4Y,2.33
6,K4P,3.72
7,K3I,3.15
8,K3G,3.33
9,K3V,3.51
10,K3M,3.42
11,K3A,3.73
12,K3L,3.46
13,K3D,2.5
14,K3Q,3.14
15,K3P,3.12
16,K3F,3.19
17,K3H,4.24
18,K3T,2.07
19,K3W,3.1
20,K3R,3.46
21,Q15F,3.19
22,Q15I,3.45
23,Q15Y,3.6
24,Q15M,3.95

row,Variant,protein stability index
1,Q15H,3.24
2,Q15K,3.25
3,Q15W,3.45
4,P10R,3.31
5,P10C,2.56
6,P10M,4.07
7,P10F,3.15
8,P10S,3.86
9,P10E,3.52
10,P10A,4.54
11,P10I,3.58
12,P10V,3.65
13,P10L,4.06
14,P10D,3.74
15,P10K,4.63
16,P10N,3.3
17,P10T,3.83
18,E8Q,2.99
19,E8H,3.92
20,E8I,3.17
21,E8F,3.14
22,E8M,2.93
23,E8P,3.63
24,E8Y,3.9

row,Variant,protein stability index
1,E8W,3.36
2,E8A,3.41
3,E8C,3.64
4,E8R,3.99
5,E8D,3.81
6,E8V,3.79
7,E8L,3.01
8,A21K,3.99
9,A21Y,3.27
10,A21D,3.51
11,A21T,3.69
12,A21I,2.92
13,A21V,4.04
14,A21C,2.66
15,A21L,3.26
16,H1C,3.85
17,H1S,4.38
18,H1N,4.13
19,H1Y,3.16
20,H1A,3.37
21,H1G,3.68
22,H1K,3.5
23,H1I,2.06
24,H1D,3.73

row,Variant,protein stability index
1,H1L,2.54
2,K18C,3.29
3,K18S,2.94
4,K18H,4.25
5,K18W,2.5
6,K18D,2.17
7,K18V,2.9
8,K18P,2.97
9,K18N,3.87
10,K18L,3.13
11,K18I,2.52
12,K23E,2.5
13,K23F,1.75
14,K23D,3.57
15,K23R,3.3
16,K23N,2.72
17,K23S,2.03
18,K23P,2.43
19,K23L,2.04
20,K23Y,3.12
21,K23G,3.12
22,K23I,2.09
23,K23W,2.68
